Substitutions are numbered along the chain they refer to. Names may count otherwise.
B1: PF.1 (VH9-D54E/VL4-N33S-p5R with VSPSV spacer, perfusion 1) (antibody, human IgG1, kappa)
heavy: not shown
light: DVVMTQSPLSLPVTLGQPASISCRSSQSLVHRSGNTYLHWFQQRPGQSPRLLIYKVSNRFSGVPDRFSGSGSGTDFTLKISRVEAEDVGVYFCFQTTYVPNTFGGGTKLEIKRTVAAPSVFIFPPSDEQLKSGTASVVCLLNNFYPREAKVQWKVDNALQSGNSQESVTEQDSKDSTYSLSSTLTLSKADYEKHKVYACEVTHQGLSSPVTKSFNRGECVSPSVRAQRAQARQARQAQRAQRAQARQARQ
notes: Antibody-peptide fusion, p5R on the light chain through VSPSV; perfusion culture 1 day, cation exchange, over 99% intact; also called VH9-D54E/VL4-N33S-VSPSV-p5R
B2: PF.7 (VH9-D54E/VL4-N33S-VSPSV-p5R collected after 7 days of perfusion culturing) (antibody, human IgG1, kappa)
heavy: not shown
light: B1 light
notes: Same construct as PF.1, perfusion culture for 7 days
B3: VH9/VL4 (antibody, V domains shown)
VH: QVQLQESGPGLVKPSETLSLTCTVSGFSLSSYGVSWIRQPPGKGLEWLGVIWGDGSTNYHPNLMSRVTISVDTSKSQVLFKLSSVTAADTAVYYCATLDYWGQGTSVTVSS
VL: DVVMTQSPLSLPVTLGQPASISCRSSQSLVHRNGNTYLHWFQQRPGQSPRLLIYKVSNRFSGVPDRFSGSGSGTDFTLKISRVEAEDVGVYFCFQTTYVPNTFGGGTKLEIK
notes: Humanized 11-1F4; also called VH9/VL4 parent
B4: chimeric antibody c11-1F4 (antibody, V domains shown)
VH: QVQLKESGPGLVAPSQSLSITCTVSGFSLSSYGVSWVRQPPGKGLEWLGVIWGDGSTNYHPNLMSRLSISKDISKSQVLFKLNSLQTDDTATYYCVTLDYWGQGTSVTVSS
VL: B3 VL with S7T, T14S, Q17D, P18Q, F41Y, Q42L, R44K, R50K, V88L, V90L
notes: Chimeric form of 11-1F4; also called ch11-1F4; chimeric (c) 11-1F4
B5: m11-1F4 (antibody, V domains shown)
VH: B4 VH
VL: B3 VL with S7T, T14S, Q17D, P18Q, F41Y, Q42L, R44K, R50K, V88L, V90L
notes: Murine monoclonal antibody; also called murine parent
B6: VH9-G55V + VL4 (antibody, V domains shown)
VH: B3 VH with G55V
VL: B3 VL
notes: Humanized 11-1F4 variant
B7: VH9 + VL4-N33Q (antibody, V domains shown)
VH: B3 VH
VL: B3 VL with N33Q
notes: Humanized 11-1F4 variant
B8: VH9-D54Q + VL4 (antibody, V domains shown)
VH: B3 VH with D54Q
VL: B3 VL
notes: Humanized 11-1F4 variant
B9: VH9-M64A + VL4 (antibody, V domains shown)
VH: B3 VH with M64A
VL: B3 VL
notes: Humanized 11-1F4 variant
B10: VH9-D54H + VL4 (antibody, V domains shown)
VH: B3 VH with D54H
VL: B3 VL
notes: Humanized 11-1F4 variant
B11: VH9 + VL4-N33A (antibody, V domains shown)
VH: B3 VH
VL: B3 VL with N33A
notes: Humanized 11-1F4 variant
B12: VH9-G55A + VL4 (antibody, V domains shown)
VH: B3 VH with G55A
VL: B3 VL
notes: Humanized 11-1F4 variant
B13: VH9-M64I + VL4 (antibody, V domains shown)
VH: B3 VH with M64I
VL: B3 VL
notes: Humanized 11-1F4 variant
B14: VH9 + VL4-N33S (antibody, V domains shown)
VH: B3 VH
VL: B3 VL with N33S
notes: Humanized 11-1F4 variant
B15: VH9 + VL4-N33E (antibody, V domains shown)
VH: B3 VH
VL: B3 VL with N33E
notes: Humanized 11-1F4 variant
B16: VH9-D54S + VL4 (antibody, V domains shown)
VH: B3 VH with D54S
VL: B3 VL
notes: Humanized 11-1F4 variant
B17: VH9-M64L + VL4 (antibody, V domains shown)
VH: B3 VH with M64L
VL: B3 VL
notes: Humanized 11-1F4 variant
B18: VH9-D54E + VL4 (antibody, V domains shown)
VH: B3 VH with D54E
VL: B3 VL
notes: Humanized 11-1F4 variant
B19: VH9 + VL4-N33H (antibody, V domains shown)
VH: B3 VH
VL: B3 VL with N33H
notes: Humanized 11-1F4 variant
B20: VH9-M64V + VL4 (antibody, V domains shown)
VH: B3 VH with M64V
VL: B3 VL
notes: Humanized 11-1F4 variant
B21: VH9 + VL4-G34A (antibody, V domains shown)
VH: B3 VH
VL: B3 VL with G34A
notes: Humanized 11-1F4 variant
B22: VH9-D54A + VL4 (antibody, V domains shown)
VH: B3 VH with D54A
VL: B3 VL
notes: Humanized 11-1F4 variant

Experiments:
Per125 wtATTR extract [1] = biological target: T1, Per125 wtATTR extract (human, UniProt P02766 21-147); test: plate assay, time-resolved fluorescence (anti-human Fc, streptavidin-europium), 4PL fit
Experimental: (§1) The antibody-peptide conjugate was added to the wells in 2-fold serial dilution starting at 100 nM. For wells containing rVλ6WIL, the antibody-peptide conjugate was added to the wells in 2-fold serial dilution starting at 5 nM.

[2] = biological target: T2, ALλ (GRA) amyloid extract; test: as above
T2 construct: also called ALκ(GRA) amyloid extract
Experimental: as §1

TAL ALκ liver extract [3] = biological target: T3, TAL ALκ liver extract; test: as above
T3 construct: Human AL amyloid extract; also called ALκ (TAL); ALκ TAL
Experimental: as §1

rVλ6Wil fibrils [4] = biological target: T4, rVλ6Wil fibrils; test: as above
T4 construct: domain: λ6 variable domain; Synthetic amyloid-like fibrils; also called rVλWIL; rVλ6Wil synthetic fibrils
Experimental: as §1

[5] = biological target: T5, ALλ (BAL) amyloid extract; test: as above
T5 construct: Human AL amyloid extract; also called human AL (BAL) amyloid extract
Experimental: as §1

SHI ALλ liver extract [6] = biological target: T6, SHI ALλ liver extract; test: as above
T6 construct: Human AL amyloid extract; also called ALλ (SHI); ALλ SHI extract
Experimental: as §1

KEN hATTR extract [7] = biological target: T7, KEN hATTR extract (human, UniProt P02766 21-147); test: as above
Experimental: as §1

[8] = biological target: Tau 441 synthetic amyloid-like fibrils (UniProt P10636-8 1-441); test: as above
Chain of Tau 441 synthetic amyloid-like fibrils (P10636 other isoform, or with tags, fused parts or gaps limits assumed): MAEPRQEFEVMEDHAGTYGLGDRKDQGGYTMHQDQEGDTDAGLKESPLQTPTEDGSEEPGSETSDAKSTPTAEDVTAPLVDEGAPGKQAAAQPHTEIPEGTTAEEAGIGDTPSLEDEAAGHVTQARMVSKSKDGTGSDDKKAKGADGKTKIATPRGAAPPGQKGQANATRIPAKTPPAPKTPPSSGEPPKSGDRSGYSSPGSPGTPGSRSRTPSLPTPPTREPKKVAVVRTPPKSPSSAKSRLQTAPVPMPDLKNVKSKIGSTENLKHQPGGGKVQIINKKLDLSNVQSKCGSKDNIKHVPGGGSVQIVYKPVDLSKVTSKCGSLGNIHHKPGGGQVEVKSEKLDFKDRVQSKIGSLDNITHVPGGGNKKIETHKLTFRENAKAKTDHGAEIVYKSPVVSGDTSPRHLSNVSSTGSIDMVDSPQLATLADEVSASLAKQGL
Experimental: (§2) The mean and standard deviation (SD) of three replicates were calculated and the potency (EC50) was determined following fitting with a sigmoidal four parameter logistic (4PL) equation with logarithmic x-axis (Prism) (FIG. 14). A non-reactive hIgG1 was used as a negative control in a parallel assay (FIG. 13B).

[9] = biological target: α-synuclein synthetic amyloid-like fibrils (UniProt P37840 1-140); test: as above
Experimental: as §2

CAB ALκ4 = biological target: T8, CAB ALκ4; test: pulldown assay
T8 construct: AL amyloid substrate of the pulldown assay

TYL ALλ extract = biological target: T9, TYL ALλ extract; test: pulldown assay
T9 construct: Human AL amyloid extract; also called ALλ TYL extract

Per125 wtATTR extract [10] = biological target: T1, Per125 wtATTR extract; test: pulldown assay
HIG ALκ1 extract = biological target: T10, HIG ALκ1 extract; test: pulldown assay
T10 construct: Human AL amyloid extract; also called ALκ HIG extract

TAL ALκ liver extract [11] = biological target: T3, TAL ALκ liver extract; test: pulldown assay
SNO hATTR extract = SNO hATTR extract (human, UniProt P02766 21-147); test: pulldown assay
rVλ6Wil fibrils [12] = biological target: T4, rVλ6Wil fibrils; test: pulldown assay
SHI ALλ liver extract [13] = biological target: T6, SHI ALλ liver extract; test: pulldown assay
KEN hATTR extract [14] = biological target: T7, KEN hATTR extract; test: pulldown assay
[15] = biological target: Per253 wild type (wt) ATTR extract (human, UniProt P02766 21-147); test: pulldown assay
rVλ6Wil fibrils [16] = biological target: T4, rVλ6Wil fibrils; test: EuLISA on rVλ6Wil fibrils; plot with two y axes
rVλ6Wil fibrils [17] = biological target: T4, rVλ6Wil fibrils; test: EuLISA on rVλ6Wil fibrils (FIG. 5A)
[18] = biological target: T11, Len(1-22) monomer peptide (Homo sapiens (Human), UniProt P06312 21-42); test: SPR, antibody as ligand, peptide as analyte
T11 construct: Analyte in SPR; on beads in the pulldown assay; also called Vκ4(LEN(1-22) beads)
T11 peptide: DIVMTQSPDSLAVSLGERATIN

Per125 wtATTR extract [19] = biological target: T1, Per125 wtATTR extract; test: EuLISA
TAL ALκ liver extract [20] = biological target: T3, TAL ALκ liver extract; test: EuLISA
rVλ6Wil fibrils [21] = biological target: T4, rVλ6Wil fibrils; test: EuLISA
SHI ALλ liver extract [22] = biological target: T6, SHI ALλ liver extract; test: EuLISA
rVλ6Wil fibrils [23] = biological target: T4, rVλ6Wil fibrils; test: EuLISA on rVλ6Wil fibrils (FIG. 5B)

Binder	Kd [18] [nM]	koff [18] [s⁻¹]	kon [18] [M⁻¹ s⁻¹]	further results
B1				EC50 (Per125 wtATTR extract [1]): 0.18 nM; EC50 [2]: 0.6 nM; EC50 (TAL ALκ liver extract [3]): 0.4 nM; EC50 (rVλ6Wil fibrils [4]): 0.15 nM; EC50 [5]: 0.36 nM; EC50 (SHI ALλ liver extract [6]): 0.32 nM; EC50 (KEN hATTR extract [7]): 0.45 nM
B2				EC50 [8]: 1300 nM; EC50 [9]: 127 nM
B3	43	0.0026	60400	percent bound (CAB ALκ4): 2.43%; percent bound (TYL ALλ extract): 0.56%; percent bound (Per125 wtATTR extract [10]): 1.36%; percent bound (HIG ALκ1 extract): 0.19%; percent bound (TAL ALκ liver extract [11]): 0.72%; percent bound (SNO hATTR extract): 0.41%; percent bound (rVλ6Wil fibrils [12]): 10.4%; percent bound (SHI ALλ liver extract [13]): 0.68%; percent bound (KEN hATTR extract [14]): 0.61%; percent bound [15]: 0.8%; EC50 (read off the curve) (rVλ6Wil fibrils [16]): ~7 nM; EC50 (rVλ6Wil fibrils [17]): 7 nM
B4				EC50 (Per125 wtATTR extract [19]): 381 nM; LogEC50 (Per125 wtATTR extract [19]): 6.42 -log(M); Max (Per125 wtATTR extract [19]): 71.1; LogEC50 (TAL ALκ liver extract [20]): ~0.599 -log(M); Max (TAL ALκ liver extract [20]): ~17800; EC50 (rVλ6Wil fibrils [21]): 291 nM; LogEC50 (rVλ6Wil fibrils [21]): 6.54 -log(M); Max (rVλ6Wil fibrils [21]): 63.9; EC50 (SHI ALλ liver extract [22]): 256 nM; LogEC50 (SHI ALλ liver extract [22]): 6.59 -log(M); Max (SHI ALλ liver extract [22]): 51.3; EC50 (rVλ6Wil fibrils [23]): ~100 nM; EC50 (rVλ6Wil fibrils [17]): ~72 nM
B5				EC50 (Per125 wtATTR extract [19]): 1880 nM; LogEC50 (Per125 wtATTR extract [19]): 5.72 -log(M); Max (Per125 wtATTR extract [19]): 209; LogEC50 (TAL ALκ liver extract [20]): ~3.03 -log(M); Max (TAL ALκ liver extract [20]): ~35100; EC50 (rVλ6Wil fibrils [21]): 543 nM; LogEC50 (rVλ6Wil fibrils [21]): 6.26 -log(M); Max (rVλ6Wil fibrils [21]): 184; LogEC50 (SHI ALλ liver extract [22]): ~4.45 -log(M); Max (SHI ALλ liver extract [22]): ~1510
B6	483	0.00163	3380	
B7	78.4	0.00104	13300	
B8	256	0.000997	3900	
B9	13.3	0.00104	77900	
B10	235	0.00139	5930	
B11	88.5	0.001	11300	
B12	17.2	0.000484	28200	
B13	20.7	0.00192	92900	
B14	66.9	0.000954	14300	
B15	106	0.00131	12300	
B16	60.5	0.000139	2300	
B17	22.4	0.00208	93000	
B18	163	0.00135	8280	
B19	56.6	0.000743	13100	
B20	21.8	0.00052	23800	
B21	30.4	0.00181	59500	
B22	2180	0.000778	356	

— patent publication US20230416347A1 (UNIVERSITY OF TENNESSEE RESEARCH FOUNDATION, published 2023)
